Experimental data as given in patent US11440969B2, “Use of human epididymis protein 4 (HE4) for assessing responsiveness of MUC 16-positive cancer treatment” (Genentech, Inc., priority 2016, dated 2022).

Assay: Safety of DMUC5754A in patients: related adverse events, DLT, MTD/RP2D (NCI CTCAE v4.0)
Format: in vivo, human
Protocol: This multicenter, open-label, dose-escalation study was designed to identify the recommended Phase II dose (RP2D) of DMUC5754A in patients with platinum-resistant OC or unresectable pancreatic cancer. In the single-agent dose escalation stage utilizing a 3+3 enrollment scheme, patients were given intravenous DMUC5754A (Genentech Inc.) 0.3-3.2 mg/kg every 3 weeks (q3w) to evaluate the safety, tolerability, and pharmacokinetics of DMUC5754A. Following determination of the maximum tolerated dose (MTD), dose-expansion cohorts were enrolled at the RP2D of 2.4 mg/kg to further characterize the safety and preliminary clinical efficacy of DMUC5754A.
Dosing on a weekly (qlw) schedule was also evaluated at the RP2D, employing a 3+3 design to determine the MTD of weekly dosing, followed by a cohort expansion to further characterize the safety and activity of q1w dosing.
Safety was evaluated according to NCI CTCAE v4.0. […] The maximum tolerated dose (MTD) was defined as the dose at which ≤1 of 6 patients at an assigned dose with protocol-defined DLT. Patients who experienced a DLT or adverse event (AE) meeting DLT criteria after the DLT assessment window were allowed to delay dosing for up to 2 weeks or undergo a dose reduction.

B1: DMUC5754A: antibody-drug conjugate: humanized IgG1 anti-MUC16 monoclonal antibody and MMAE, linked through protease labile linker maleimidocaproyl-valine-citrulline-p-aminobenzyloxycarbonyl (conjugate, chains of the INN, looked up)
VH: EVQLVESGGGLVQPGGSLRLSCAASGYSITNDYAWNWVRQAPGKGLEWVGYISYSGYTTYNPSLKSRFTISRDTSKNTLYLQMNSLRAEDTAVYYCARWTSGLDYWGQGTLVTVSS
VL: DIQMTQSPSSLSASVGDRVTITCKASDLIHNWLAWYQQKPGKAPKLLIYGATSLETGVPSRFSGSGSGTDFTLTISSLQPEDFATYYCQQYWTTPFTFGQGTKVEIK
modifications: MMAE via mc-vc-PABC linker
protocol-defined DLTs (3.2 mg/kg q3w, OC, 1 Grade 4 hypocalcaemia and 1 Grade 3 uric acid increase, in 2 of 3 DLT-evaluable patients): 2 | Alopecia (related AE), patients n (%) (q1w 0.8 mg/kg (n = 3)): 0 | Anemia (related AE), patients n (%) (q1w 0.8 mg/kg (n = 3)): 1 (33.3%) | Any adverse events (related), patients n (%) (q1w 0.8 mg/kg (n = 3)): 2 (66.7%) | Arthralgia (related AE), patients n (%) (q1w 0.8 mg/kg (n = 3)): 0 | Aspartate aminotransferase increased (related AE), patients n (%) (q1w 0.8 mg/kg (n = 3)): 0 | Constipation (related AE), patients n (%) (q1w 0.8 mg/kg (n = 3)): 1 (33.3%) | Decreased appetite (related AE), patients n (%) (q1w 0.8 mg/kg (n = 3)): 0 | Diarrhea (related AE), patients n (%) (q1w 0.8 mg/kg (n = 3)): 0 | Fatigue (related AE), patients n (%) (q1w 0.8 mg/kg (n = 3)): 0 | Headache (related AE), patients n (%) (q1w 0.8 mg/kg (n = 3)): 0 | Hypomagnesaemia (related AE), patients n (%) (q1w 0.8 mg/kg (n = 3)): 1 (33.3%) | Hyponatremia (related AE), patients n (%) (q1w 0.8 mg/kg (n = 3)): 0 | Nausea (related AE), patients n (%) (q1w 0.8 mg/kg (n = 3)): 0 | Neutropenia (related AE), patients n (%) (q1w 0.8 mg/kg (n = 3)): 1 (33.3%) | Peripheral neuropathy (related AE), patients n (%) (q1w 0.8 mg/kg (n = 3)): 0 | Vomiting (related AE), patients n (%) (q1w 0.8 mg/kg (n = 3)): 0 | Alopecia (related AE), patients n (%) (q1w 1.1 mg/kg (n = 7)): 1 (14.3%) | Anemia (related AE), patients n (%) (q1w 1.1 mg/kg (n = 7)): 3 (42.9%) | Any adverse events (related), patients n (%) (q1w 1.1 mg/kg (n = 7)): 7 (100.0%) | Arthralgia (related AE), patients n (%) (q1w 1.1 mg/kg (n = 7)): 2 (28.6%) | Aspartate aminotransferase increased (related AE), patients n (%) (q1w 1.1 mg/kg (n = 7)): 2 (28.6%) | Constipation (related AE), patients n (%) (q1w 1.1 mg/kg (n = 7)): 0 | Decreased appetite (related AE), patients n (%) (q1w 1.1 mg/kg (n = 7)): 1 (14.3%) | Diarrhea (related AE), patients n (%) (q1w 1.1 mg/kg (n = 7)): 3 (42.9%) | Fatigue (related AE), patients n (%) (q1w 1.1 mg/kg (n = 7)): 2 (28.6%) | Headache (related AE), patients n (%) (q1w 1.1 mg/kg (n = 7)): 2 (28.6%) | Hypomagnesaemia (related AE), patients n (%) (q1w 1.1 mg/kg (n = 7)): 2 (28.6%) | Hyponatremia (related AE), patients n (%) (q1w 1.1 mg/kg (n = 7)): 1 (14.3%) | Nausea (related AE), patients n (%) (q1w 1.1 mg/kg (n = 7)): 4 (57.1%) | Neutropenia (related AE), patients n (%) (q1w 1.1 mg/kg (n = 7)): 1 (14.3%) | Peripheral neuropathy (related AE), patients n (%) (q1w 1.1 mg/kg (n = 7)): 1 (14.3%) | Vomiting (related AE), patients n (%) (q1w 1.1 mg/kg (n = 7)): 2 (28.6%) | Alopecia (related AE), patients n (%) (q1w 1.4 mg/kg (n = 7)): 2 (28.6%) | Anemia (related AE), patients n (%) (q1w 1.4 mg/kg (n = 7)): 2 (28.6%) | Any adverse events (related), patients n (%) (q1w 1.4 mg/kg (n = 7)): 5 (71.4%) | Arthralgia (related AE), patients n (%) (q1w 1.4 mg/kg (n = 7)): 1 (14.3%) | Aspartate aminotransferase increased (related AE), patients n (%) (q1w 1.4 mg/kg (n = 7)): 1 (14.3%) | Constipation (related AE), patients n (%) (q1w 1.4 mg/kg (n = 7)): 2 (28.6%) | Decreased appetite (related AE), patients n (%) (q1w 1.4 mg/kg (n = 7)): 3 (42.9%) | Diarrhea (related AE), patients n (%) (q1w 1.4 mg/kg (n = 7)): 0 | Fatigue (related AE), patients n (%) (q1w 1.4 mg/kg (n = 7)): 2 (28.6%) | Headache (related AE), patients n (%) (q1w 1.4 mg/kg (n = 7)): 0 | Hypomagnesaemia (related AE), patients n (%) (q1w 1.4 mg/kg (n = 7)): 0 | Hyponatremia (related AE), patients n (%) (q1w 1.4 mg/kg (n = 7)): 1 (14.3%) | Nausea (related AE), patients n (%) (q1w 1.4 mg/kg (n = 7)): 4 (57.1%) | Neutropenia (related AE), patients n (%) (q1w 1.4 mg/kg (n = 7)): 1 (14.3%) | Peripheral neuropathy (related AE), patients n (%) (q1w 1.4 mg/kg (n = 7)): 2 (28.6%) | Vomiting (related AE), patients n (%) (q1w 1.4 mg/kg (n = 7)): 5 (71.4%) | Alopecia (related AE), patients n (%) (q1w 1.6 mg/kg (n = 6)): 2 (33.3%) | Anemia (related AE), patients n (%) (q1w 1.6 mg/kg (n = 6)): 2 (33.3%) | Any adverse events (related), patients n (%) (q1w 1.6 mg/kg (n = 6)): 6 (100.0%) | Arthralgia (related AE), patients n (%) (q1w 1.6 mg/kg (n = 6)): 0 | Aspartate aminotransferase increased (related AE), patients n (%) (q1w 1.6 mg/kg (n = 6)): 1 (16.7%) | Constipation (related AE), patients n (%) (q1w 1.6 mg/kg (n = 6)): 0 | Decreased appetite (related AE), patients n (%) (q1w 1.6 mg/kg (n = 6)): 1 (16.7%) | Diarrhea (related AE), patients n (%) (q1w 1.6 mg/kg (n = 6)): 2 (33.3%) | Fatigue (related AE), patients n (%) (q1w 1.6 mg/kg (n = 6)): 3 (50.0%) | Headache (related AE), patients n (%) (q1w 1.6 mg/kg (n = 6)): 1 (16.7%) | Hypomagnesaemia (related AE), patients n (%) (q1w 1.6 mg/kg (n = 6)): 2 (33.3%) | Hyponatremia (related AE), patients n (%) (q1w 1.6 mg/kg (n = 6)): 1 (16.7%) | Nausea (related AE), patients n (%) (q1w 1.6 mg/kg (n = 6)): 3 (50.0%)
